The source of these data is patent US20220380482A1.

For this experiment, the target named is human neonatal Fc receptor (FcRn) (human) (UniProt P55899). Kind of experiment: SPR (Biacore T200), FcRn amine-coupled to CM5 chip, antibody as analyte, steady state fit, pH 6.0.
human neonatal Fc receptor (FcRn) (human), sequence (P55899 24-297 limits assumed, chain 1 of 2): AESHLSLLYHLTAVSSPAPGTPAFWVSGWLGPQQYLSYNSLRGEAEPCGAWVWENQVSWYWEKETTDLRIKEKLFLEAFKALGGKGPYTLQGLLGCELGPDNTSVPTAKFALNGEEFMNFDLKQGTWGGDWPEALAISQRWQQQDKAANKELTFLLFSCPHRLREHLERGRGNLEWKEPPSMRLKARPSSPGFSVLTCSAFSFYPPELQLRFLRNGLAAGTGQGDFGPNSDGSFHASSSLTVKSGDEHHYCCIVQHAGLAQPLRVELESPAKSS
human neonatal Fc receptor (FcRn) (human), sequence (P61769 21-119 limits assumed, chain 2 of 2, further chain): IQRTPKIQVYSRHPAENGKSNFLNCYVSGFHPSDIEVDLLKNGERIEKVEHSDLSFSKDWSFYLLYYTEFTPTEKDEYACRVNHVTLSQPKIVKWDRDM

Substance Irrelevant IgG1 (antibody) had a Kd of 2.37 µM.

In the case of Irrelevant IgG4 (antibody), the dissociation constant (Kd) is 3.25 µM.
